The target in test [1] is T1, human CLDN6 on cells (human, UniProt P56747 1-220).
T1 construct: CHO-K1 cells stably expressing human CLDN6, and OVCAR3 / OV90 cells with endogenous CLDN6; also called CHO-K1-CLDN6; CLDN6 on OVCAR3 and OV90 cells
T1 sequence: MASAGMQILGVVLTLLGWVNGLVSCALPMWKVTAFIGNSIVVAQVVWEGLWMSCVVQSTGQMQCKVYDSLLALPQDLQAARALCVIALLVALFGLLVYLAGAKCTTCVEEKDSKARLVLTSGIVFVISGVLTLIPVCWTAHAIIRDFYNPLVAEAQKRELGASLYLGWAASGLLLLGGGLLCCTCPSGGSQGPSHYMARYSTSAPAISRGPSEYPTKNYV
The test can be described thus: flow cytometry (GMFI) on CHO-K1-CLDN6 cells.

For test [2], the target named is T1, human CLDN6 on cells. The experiment in a line: flow cytometry (GMFI) on OV90 cells.
In test [3] the target is T1, human CLDN6 on cells. The test can be described thus: flow cytometry (GMFI) on OVCAR3 cells.
Test [4] has as its target T2, human MUC16 on cells (human, UniProt Q8WXI7 1-14507).
T2 construct: whole, on cells; also called huMUC16; MUC16 on OVCAR3 and SNU216 cells
The experiment in a line: flow cytometry (GMFI) on OVCAR3 cells, nM is the unit of the x axis Log10[Ab] (nM).

Test [5] addresses T3, huMUC16, AA13789-14451.
T3 construct: also called MUC16 Antigen (human MUC16 AA13789-14451)
T3 chain: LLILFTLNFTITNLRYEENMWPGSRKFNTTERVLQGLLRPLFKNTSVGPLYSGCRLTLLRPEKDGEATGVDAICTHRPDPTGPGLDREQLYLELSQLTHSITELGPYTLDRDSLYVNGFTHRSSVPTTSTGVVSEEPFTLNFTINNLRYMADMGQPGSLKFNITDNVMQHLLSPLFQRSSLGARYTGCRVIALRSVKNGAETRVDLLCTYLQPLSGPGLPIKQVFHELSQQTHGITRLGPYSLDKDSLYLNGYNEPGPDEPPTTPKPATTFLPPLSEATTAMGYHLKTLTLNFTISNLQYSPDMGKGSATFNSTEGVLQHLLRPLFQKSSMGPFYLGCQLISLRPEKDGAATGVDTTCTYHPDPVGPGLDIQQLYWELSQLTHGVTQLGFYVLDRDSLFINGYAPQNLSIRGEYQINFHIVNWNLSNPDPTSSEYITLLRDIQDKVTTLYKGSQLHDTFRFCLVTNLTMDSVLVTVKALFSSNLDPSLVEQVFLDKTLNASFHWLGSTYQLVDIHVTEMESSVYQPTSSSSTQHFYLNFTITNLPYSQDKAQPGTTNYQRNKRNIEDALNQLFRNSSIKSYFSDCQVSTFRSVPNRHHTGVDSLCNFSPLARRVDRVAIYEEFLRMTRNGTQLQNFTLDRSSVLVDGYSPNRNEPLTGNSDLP
The experiment in a line: binding ELISA on huMUC16 AA13789-14451.

Test [6] deals with T2, human MUC16 on cells. The test can be described thus: flow cytometry (GMFI) on OVCAR3 cells; same value as in FIG. 11A, nM is the unit of the x axis.
Test [7] concerns the target T2, human MUC16 on cells. The experiment in a line: flow cytometry (MFI GeoMean) on OVCAR3 cells, nM is the unit of the x axis Log10[Ab] (nM).
Test [8] concerns the target T4, huMUC16, AA14198-14507.
T4 chain: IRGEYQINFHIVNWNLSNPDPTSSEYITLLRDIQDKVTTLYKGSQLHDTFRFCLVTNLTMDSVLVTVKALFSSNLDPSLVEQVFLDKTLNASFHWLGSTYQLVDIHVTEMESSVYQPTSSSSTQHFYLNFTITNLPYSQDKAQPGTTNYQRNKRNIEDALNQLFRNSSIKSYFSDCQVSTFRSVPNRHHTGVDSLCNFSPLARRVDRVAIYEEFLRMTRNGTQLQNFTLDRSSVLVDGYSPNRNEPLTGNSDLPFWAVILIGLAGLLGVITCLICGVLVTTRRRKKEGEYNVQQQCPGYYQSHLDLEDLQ
The test can be described thus: binding ELISA on huMUC16 AA14198-14507.

In test [9] the target is T5, HEK293-MUC16 (13810-14507) (human, UniProt Q8WXI7 13810-14507).
T5 construct: range 13810-14507; also called MUC16 overexpressed HEK293 cells
T5 sequence: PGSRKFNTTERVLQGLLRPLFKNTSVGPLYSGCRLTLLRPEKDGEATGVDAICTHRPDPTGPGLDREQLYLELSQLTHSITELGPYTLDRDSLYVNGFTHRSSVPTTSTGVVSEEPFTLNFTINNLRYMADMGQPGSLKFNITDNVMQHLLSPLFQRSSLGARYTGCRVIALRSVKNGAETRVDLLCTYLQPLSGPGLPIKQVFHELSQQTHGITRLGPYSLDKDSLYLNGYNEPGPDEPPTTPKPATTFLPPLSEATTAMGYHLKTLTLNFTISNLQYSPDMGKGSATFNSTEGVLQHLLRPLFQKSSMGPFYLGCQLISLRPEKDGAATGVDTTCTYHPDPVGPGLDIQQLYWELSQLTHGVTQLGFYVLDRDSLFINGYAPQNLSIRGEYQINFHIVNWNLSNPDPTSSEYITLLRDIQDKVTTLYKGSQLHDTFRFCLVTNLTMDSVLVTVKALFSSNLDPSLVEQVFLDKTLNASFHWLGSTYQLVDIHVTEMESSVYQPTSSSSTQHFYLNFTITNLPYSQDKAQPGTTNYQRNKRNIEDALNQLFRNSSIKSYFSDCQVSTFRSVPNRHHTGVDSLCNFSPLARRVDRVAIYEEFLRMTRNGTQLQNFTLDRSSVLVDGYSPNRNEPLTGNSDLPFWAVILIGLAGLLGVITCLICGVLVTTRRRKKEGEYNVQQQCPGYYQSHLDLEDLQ
The test can be described thus: flow cytometry (MFI GeoMean) on HEK293-MUC16 (13810-14507) cells, nM is the unit of the x axis Log10[Ab] (nM).

For test [10], the target named is T2, human MUC16 on cells. The experiment in a line: flow cytometry (MFI GeoMean) on SNU216 cells, nM is the unit of the x axis Log10[Ab] (nM).
The target in test [11] is T5, HEK293-MUC16 (13810-14507). The experiment in a line: flow cytometry (MFI GeoMean) on HEK293-MUC16 (13810-14507) cells; the curve lies on the Iso curve up to about 4 nM and reaches only about 8000 at 100 nM against 40000-75000 for the others; paragraph 397 says h3A5 does not bind these cells; no unit in the table, nM from the x axis.
For test [12], the target named is T6, monomeric human 4-1BB (human, UniProt Q07011 24-186, limits assumed).
T6 construct: SPR analyte/ligand
The experiment in a line: SPR, measured in parallel.

The target of test [13] is T7, soluble recombinant human 4-1BB (human, UniProt Q07011 24-186).
T7 construct: ELISA antigen
The test can be described thus: ELISA (OD450) on soluble recombinant human 4-1BB.

The target of test [14] is T8, 4-1BB on cells (human, UniProt Q07011 24-255).
T8 construct: Species is stated as human for section 2.2 as a whole, not for each cell line; also called HEK293 cells expressing 4-1BB; 4-1BB overexpressed HEK293 cell
The test can be described thus: flow cytometry (GMFI) on HEK293T-4-1BB cells.

In test [15] the target is T6, monomeric human 4-1BB. The experiment in a line: SPR, monomeric human 4-1BB.

This is an account of results in patent US20260078196A1 (TJ BIOPHARMA SHANGHAI, published 2026).

T6 sequence (Q07011 24-186 limits assumed): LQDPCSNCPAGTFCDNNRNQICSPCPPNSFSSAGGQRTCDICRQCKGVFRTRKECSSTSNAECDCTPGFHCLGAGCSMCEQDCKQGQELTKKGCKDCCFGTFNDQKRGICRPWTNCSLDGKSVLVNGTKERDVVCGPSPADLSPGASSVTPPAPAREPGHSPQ
T8 sequence (Q07011 24-255): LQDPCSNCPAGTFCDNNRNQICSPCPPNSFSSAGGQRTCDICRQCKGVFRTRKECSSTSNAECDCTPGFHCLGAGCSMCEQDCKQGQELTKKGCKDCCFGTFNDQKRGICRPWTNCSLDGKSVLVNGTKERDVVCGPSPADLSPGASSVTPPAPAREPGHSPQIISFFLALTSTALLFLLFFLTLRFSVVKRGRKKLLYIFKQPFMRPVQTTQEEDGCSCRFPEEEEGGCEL
T7 sequence (Q07011 24-186 limits assumed): as the sequence (Q07011 24-186 limits assumed) above

B1: parental CLDN6-1 antibody (antibody, V domains shown)
VH: QVQLQESGPGLVKPSETLSLTCTVSGYSITSGYYWNWIRQPPGKGLEWMGYISYSGSNNYNPSLKNRVTISRDTSKNQFSLKLSSVTAADTAVYYCARGGYYFDYWGQGTLVTVSS
VL: DIVMTQSPDSLAVSLGERATINCKSSQSLLNTNNQKNYLAWYQQKPGQPPKLLIYFASTRESGVPDRFSGSGSGTDFTLTISSLQAEDVAVYFCQQHYNAPRTFGGGTKVEIK
On to B1, for which the concentration for a half-maximal effect (EC50) in test [1] came out at 0.452 nM; in test [2], 1.2 nM; in test [3], 5.1 nM.

B2: M16-1 (antibody, human IgG1, kappa, N297A, V domains shown)
VH: QVQLVESGGGLVKPGGSLRLSCAASGFTFSNYYMSWVRQAPGKGLEWISYISGRGSTIFYADSVKGRITISRDNAKNSLFLQMNSLRAEDTAVYFCVKDRGGYSPYWGQGTLVTVSS
VL: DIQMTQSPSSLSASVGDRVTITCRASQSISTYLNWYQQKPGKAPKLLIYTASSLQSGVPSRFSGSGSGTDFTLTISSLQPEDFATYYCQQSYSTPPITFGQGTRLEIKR
notes: also called benchmarker antibody M16-1
As to B2, the EC50 in test [4] and in test [6] was 0.192 nM throughout. In addition, in test [5], the binding result is given as “binds”.

B3: M16-2 (antibody, human IgG1, kappa, N297A, V domains shown)
VH: EVQLVESGGGLEQPGRSLRLSCTASGFAFGDHTMSWVRQAPGKGLEWVGFIRSRAYGGTTEYAASVKGRFTISRDDSKSIAYLQMDSLKTEDTAVYYCTSGGYDSSLHYYYYYHGMDVWGRGTTVTVSS
VL: not shown
notes: Benchmark anti-MUC16 antibody; also called benchmarker antibody M16-2
On to B3, for which the EC50 in [7] is 0.274 nM; in test [4], 0.257 nM; in test [9] it was 0.423 nM; in test [6] it was 0.257 nM; in test [10] it was 0.152 nM. The binding result in test [8] is reported as “no binding (tested: 100 nM)”; in test [5], “binds”.

B4: 3A5 (antibody, human IgG1, kappa, V domains shown)
VH: EVQLVESGGGLVQPGGSLRLSCAASGYSITNDYAWNWVRQAPGKGLEWVGYISYSGYTTYNPSIKSRFTISRDTSKNTLYLQMNSLRAEDTAVYYCARWTSGLDYWGQGTLVTVSS
VL: DIQMTQSPSSLSASVGDRVTITCKASDLIHNWLAWYQQKPGKAPKLLIYGATSLETGVPSRFSGSGSGTDFTLTISSLQPEDFATYYCQQYWTTPFTFGQGTKVEIKR
notes: Benchmark anti-MUC16 antibody; printed both as h3A5 and 3A5; also called h3A5; benchmarker 3A5
In the case of B4, the EC50 in [7] came out at 0.799 nM; in test [11], 63.4 nM; in [10], 0.571 nM.

B5: parental anti-4-1BB sdAb antibody conjugated with IgG1 Fc fragment (Fc fusion)
chain: QVQLQESGGGLVQPGGSLRLSCAASGYTYSSNCMGWFRQAPGKGLEGVAVICTGGGSPSYADSVKGRFTISRDNAKNTLYLQMNSLRAEDTAVYYCAADLLRAGTPLSSYEFNYWGQGTLVTVSS
notes: also called 4-1BB sdAb-Fc; not shown: IgG1 Fc fragment
The molecule B5 gave an equilibrium dissociation constant (Kd) in [12] of 4.39 nM. The concentration giving a half-maximal response (EC50) is 0.071 nM in [13] and 0.131 nM in test [14]. In addition, in [15], the kon turned out to be 383000 M⁻¹ s⁻¹.
